Source: patent WO2011080050A2 (dated 2011)

T1: natural human CCL21 (secreted and isolated from transfected HEK-293T cells) (human, UniProt O00585 24-134)
T1 sequence: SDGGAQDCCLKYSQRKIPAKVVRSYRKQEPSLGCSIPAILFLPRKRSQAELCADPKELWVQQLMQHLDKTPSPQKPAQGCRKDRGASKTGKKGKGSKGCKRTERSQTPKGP

T2: cynomolgus monkey CCL21 (cynomolgus monkey, UniProt Q8HYP5 24-131 (rhesus entry))
T2 sequence: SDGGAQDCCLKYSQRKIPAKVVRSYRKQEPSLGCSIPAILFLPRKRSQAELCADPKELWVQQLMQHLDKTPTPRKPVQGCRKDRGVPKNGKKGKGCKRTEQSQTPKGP

T3: human CCL21 (human, UniProt O00585 24-134)
T3 sequence: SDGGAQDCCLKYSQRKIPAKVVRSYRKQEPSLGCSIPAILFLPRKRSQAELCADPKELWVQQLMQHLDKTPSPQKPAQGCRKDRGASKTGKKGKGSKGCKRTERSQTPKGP


Legend:
[1] = biological target: T1, natural human CCL21 (secreted and …); experiment: cell-based or functional assay
cynomolgus monkey CCL21 [2] = biological target: T2, cynomolgus monkey CCL21; experiment: cell-based or functional assay
human CCL21 [3] = biological target: T3, human CCL21; experiment: cell-based or functional assay
[4] = biological target: CCL21 of the four chemotaxis assays (recombinant human, recombinant cynomolgus monkey, natural human); experiment: cell-based or functional assay
cynomolgus monkey CCL21 [5] = biological target: T2, cynomolgus monkey CCL21; experiment: SPR (Biacore T100), antibody captured on protein A, CCL21 as analyte, 1:1 model, two experiments
human CCL21 [6] = biological target: T3, human CCL21; experiment: SPR (Biacore T100), antibody captured on protein A, CCL21 as analyte, 1:1 model, three experiments

% inhibition of migration, natural hCCL21, H9 cells, 1:1 molar ratio (4th cell) [1]	% inhibition of migration, natural hCCL21, H9 cells, IgG at 2uM (4th cell) [1]	% inhibition of migration, recombinant cCCL21, H9 cells, 1:1 molar ratio (3rd cell) (cynomolgus monkey CCL21 [2])	% inhibition of migration, recombinant cCCL21, H9 cells, IgG at 2uM (3rd cell) (cynomolgus monkey CCL21 [2])	IC50, inhibition of CCL21-mediated calcium mobilization, cynomolgus monkey CCL21 on CHO-K1 cells with cynomolgus monkey CCR7 (cynomolgus monkey CCL21 [2])	IC50, inhibition of CCL21-mediated calcium mobilization, cynomolgus monkey CCL21 on CHO-K1 cells with human CCR7 (cynomolgus monkey CCL21 [2])	% inhibition of migration, recombinant hCCL21, H9 cells, 1:1 molar ratio (1st cell) (human CCL21 [3])	% inhibition of migration, recombinant hCCL21, H9 cells, IgG at 2uM (1st cell) (human CCL21 [3])	% inhibition of migration, recombinant hCCL21, primary human T cells, 1:1 molar ratio (2nd cell) (human CCL21 [3])	% inhibition of migration, recombinant hCCL21, primary human T cells, IgG at 2uM (2nd cell) (human CCL21 [3])	IC50, inhibition of CCL21-mediated calcium mobilization, human CCL21 on CHO-K1 cells with cynomolgus monkey CCR7 (human CCL21 [3])	IC50, inhibition of CCL21-mediated calcium mobilization, human CCL21 on CHO-K1 cells with human CCR7 (human CCL21 [3])	% inhibition of CCL21 mediated chemotaxis at 1:1 molar ratio, large scale batch, four assays [4]	IC50, inhibition of CCL21 mediated chemotaxis, large scale batch, four assays [4]	Kd (cynomolgus monkey CCL21 [5])	kon (cynomolgus monkey CCL21 [5])	Kd (human CCL21 [6])	kon (human CCL21 [6])	IC50, inhibition of natural hCCL21-mediated migration of H9 cells [1]	IC50, inhibition of recombinant hCCL21-mediated migration of H9 cells (human CCL21 [3])	Binder
77%	100%	96%	100%	62 nM	211 nM	61%	100%	86%	100%	252 nM	341 nM	81 to 100%	11 to 45 nM	0.026 nM	9.1e+07 M⁻¹ s⁻¹	0.03 nM	6.8e+07 M⁻¹ s⁻¹			MOR06935_g3-23_g3j (antibody, V domains shown, also called QBP359; FW repaired germlined MOR06935) VH: EVQLLESGGGLVQPGGSLRLSCAASGFTFNSYSMSWVRQAPGKGLEWVSAISMEGYSKSYADSVKGRFTISRDNSKNTLYLQMNSLRAEDTAVYYCARGYGYYFDVWGQGTLVTVSS VL: SYELTQPLSVSVALGQTARITCGGDSIGSQYASWYQQKPGQAPVLVIYDDNERPSGIPERFSGSNSGNTATLTISRAQAGDEADYYCGSWDSNPTHVFGGGTKLTVLG
82%	100%	100%	100%			94%	94%	100%	100%									34 nM	54.1 nM	MOR08389_g3-23_g3j (antibody, human IgG1, lambda, V domains shown) VH: EVQLLESGGGLVQPGGSLRLSCAASGFTFNSYSMSWVRQAPGKGLEWVSAISMEGYSKSYADSVKGRFTISRDNSKNTLYLQMNSLRAEDTAVYYCARGYGYYFDVWGQGTLVTVSS VL: SYELTQPLSVSVALGQTARITCGGDSIGSQYASWYQQKPGQAPVLVIYDDNERPSGIPERFSGSNSGNTATLTISRAQAGDEADYYCSSWDMDAVNVFGGGTKLTVLG
64%	100%	100%	100%			87%	100%	100%	100%									69 nM	49.7 nM	MOR08378_g5-51_g2a2 (antibody, human IgG1, lambda, V domains shown) VH: EVQLVQSGAEVKKPGESLKISCKGSGYSFNNYWISWVRQMPGKGLEWMGIIDPTNSQTTYSPSFQGQVTISADKSISTAYLQWSSLKASDTAMYYCARDGYPIFDYWGQGTLVTVSS VL: QSALTQPASVSGSPGQSITISCTGTSSDLGGYNYVSWYQQHPGKAPKLMIYDVNYRPSGVSNRFSGSKSGNTASLTISGLQAEDEADYYCSSYTYYSNSGVFGGGTKLTVLG
70%	100%	100%	100%			97%	97%	100%	100%									66 nM	23.7 nM	MOR08382_g3-23_gL6 (antibody, human IgG1, kappa, V domains shown) VH: EVQLLESGGGLVQPGGSLRLSCAASGFTFSSYWLNWVRQAPGKGLEWVSYISNQGDDTSYADSVKGRFTISRDNSKNTLYLQMNSLRAEDTAVYYCARDYQYIGDSFDIWGQGTLVTVSS VL: EIVLTQSPATLSLSPGERATLSCRASQYVSYVSLAWYQQKPGQAPRLLIYDASNRATGIPARFSGSGSGTDFTLTISSLEPEDFAVYYCQQYDDLSYTFGQGTKVEIKR
